# Laboratory results reported in US20160039904A1, “STABILIZED SINGLE HUMAN CD4 DOMAINS AND FUSION PROTEINS” (priority 2013, published 2016).
# Legend:
# Experiment in all cases: cell-based or functional assay
# [1] = biological target: HIV-1 Env of isolate CNE49 (HIV-1)
# [2] = biological target: HIV-1 Env of isolate CH119 (HIV-1)
# [3] = biological target: HIV-1 Env of isolate CNE58 (HIV-1)
# [4] = biological target: HIV-1 Env of isolate CNE64 (HIV-1)
# [5] = biological target: HIV-1 Env of isolate CH64 (HIV-1)
# [6] = biological target: HIV-1 Env of isolate CNE53 (HIV-1)
# [7] = biological target: HIV-1 Env of isolate CNE11 (HIV-1)
# [8] = biological target: HIV-1 Env of isolate CH91 (HIV-1)
# [9] = biological target: HIV-1 Env of isolate CNE7 (HIV-1)
# [10] = biological target: HIV-1 Env of isolate CH117 (HIV-1)
# [11] = biological target: HIV-1 Env of isolate CNE107 (HIV-1)
# [12] = biological target: HIV-1 Env of isolate CNE4 (HIV-1)
# [13] = biological target: HIV-1 Env of isolate CNE46 (HIV-1)
# [14] = biological target: HIV-1 Env of isolate CNE65 (HIV-1)
# [15] = biological target: HIV-1 Env of isolate CNE68 (HIV-1)
# [16] = biological target: HIV-1 Env of isolate CNE59 (HIV-1)
# [17] = biological target: HIV-1 Env of isolate CNE66 (HIV-1)
# [18] = biological target: HIV-1 Env of isolate AE20 (HIV-1)
# [19] = biological target: HIV-1 Env of isolate CNE9 (HIV-1)
# [20] = biological target: HIV-1 Env of isolate GX2010.36 (HIV-1)
# [21] = biological target: HIV-1 Env of isolate CH114 (HIV-1)
# [22] = biological target: HIV-1 Env of isolate CNE40 (HIV-1)
# [23] = biological target: HIV-1 Env of isolate YN192.31 (HIV-1)
# [24] = biological target: HIV-1 Env of isolate CNE6 (HIV-1)
# [25] = biological target: HIV-1 Env of isolate CNE3 (HIV-1)
# [26] = biological target: HIV-1 Env of isolate CH110 (HIV-1)
# [27] = biological target: HIV-1 Env of isolate CNE47 (HIV-1)
# [28] = biological target: HIV-1 Env of isolate CNE17 (HIV-1)
# [29] = biological target: HIV-1 Env of isolate CNE16 (HIV-1)
# [30] = biological target: HIV-1 Env of isolate CNE1 (HIV-1)
# [31] = biological target: HIV-1 Env of isolate CNE55 (HIV-1)
# [32] = biological target: HIV-1 Env of isolate CNE5 (HIV-1)
# [33] = biological target: HIV-1 Env of isolate AE03 (HIV-1)
# [34] = biological target: HIV-1 Env of isolate CNE30 (HIV-1)
# [35] = biological target: HIV-1 Env of isolate CNE20 (HIV-1)
# [36] = biological target: HIV-1 Env of isolate CNE57 (HIV-1)
# [37] = biological target: HIV-1 Env of isolate CNE15 (HIV-1)
# [38] = biological target: HIV-1 Env of isolate CH70 (HIV-1)
# [39] = biological target: HIV-1 Env of isolate CNE14 (HIV-1)
# [40] = biological target: HIV-1 Env of isolate CH120 (HIV-1)
# [41] = biological target: HIV-1 Env of isolate CNE23 (HIV-1)
substance,measurement,setting,value
C34 (peptide),neutralization IC50,[1],2.3 nM
same,neutralization IC90,[1],12 nM
same,neutralization IC50,[2],3.3 nM
same,neutralization IC90,[2],20 nM
same,neutralization IC50,[3],2 nM
same,neutralization IC90,[3],13 nM
same,neutralization IC50,[4],5.1 nM
same,neutralization IC90,[4],21 nM
same,neutralization IC50,[5],1.2 nM
same,neutralization IC90,[5],6.7 nM
same,neutralization IC50,[6],2 nM
same,neutralization IC90,[6],23 nM
same,neutralization IC50,[7],4.6 nM
same,neutralization IC90,[7],42 nM
same,neutralization IC50,[8],2.3 nM
same,neutralization IC90,[8],12 nM
same,neutralization IC50,[9],6.4 nM
same,neutralization IC90,[9],22 nM
same,neutralization IC50,[10],0.6 nM
same,neutralization IC90,[10],3.2 nM
same,neutralization IC50,[11],2.8 nM
same,neutralization IC90,[11],32 nM
same,neutralization IC50,[12],6.3 nM
same,neutralization IC90,[12],23 nM
same,neutralization IC50,[13],6.4 nM
same,neutralization IC90,[13],115 nM
same,neutralization IC50,[14],3.1 nM
same,neutralization IC90,[14],16 nM
same,neutralization IC50,[15],2.2 nM
same,neutralization IC90,[15],12 nM
same,neutralization IC50,[16],3.4 nM
same,neutralization IC90,[16],28 nM
same,neutralization IC50,[17],2.1 nM
same,neutralization IC90,[17],11 nM
same,neutralization IC50,[18],7.4 nM
same,neutralization IC90,[18],69 nM
same,neutralization IC50,[19],0.87 nM
same,neutralization IC90,[19],5.8 nM
same,neutralization IC50,[20],15 nM
same,neutralization IC90,[20],165 nM
same,neutralization IC50,[21],5.4 nM
same,neutralization IC90,[21],25 nM
same,neutralization IC50,[22],0.77 nM
same,neutralization IC90,[22],7.8 nM
same,neutralization IC50,[23],27 nM
same,neutralization IC90,[23],225 nM
same,neutralization IC50,[24],1.6 nM
same,neutralization IC90,[24],15 nM
same,neutralization IC50,[25],7.1 nM
same,neutralization IC90,[25],71 nM
same,neutralization IC50,[26],0.78 nM
same,neutralization IC90,[26],6.3 nM
same,neutralization IC50,[27],1.9 nM
same,neutralization IC90,[27],14 nM
same,neutralization IC50,[28],3.2 nM
same,neutralization IC90,[28],82 nM
same,neutralization IC50,[29],11 nM
same,neutralization IC90,[29],51 nM
same,neutralization IC50,[30],0.73 nM
same,neutralization IC90,[30],6.8 nM
same,neutralization IC50,[31],7.9 nM
same,neutralization IC90,[31],103 nM
same,neutralization IC50,[32],5.9 nM
same,neutralization IC90,[32],63 nM
same,neutralization IC50,[33],24 nM
same,neutralization IC90,[33],85 nM
same,neutralization IC50,[34],14 nM
same,neutralization IC90,[34],110 nM
same,neutralization IC50,[35],3.3 nM
same,neutralization IC90,[35],14 nM
same,neutralization IC50,[36],2 nM
same,neutralization IC90,[36],14 nM
same,neutralization IC50,[37],3.8 nM
same,neutralization IC90,[37],22 nM
same,neutralization IC50,[38],7.6 nM
same,neutralization IC90,[38],84 nM
same,neutralization IC50,[39],3.9 nM
same,neutralization IC90,[39],17 nM
same,neutralization IC50,[40],4.6 nM
same,neutralization IC90,[40],39 nM
same,neutralization IC50,[41],2.1 nM
same,neutralization IC90,[41],18 nM
4Dm2m (Fc fusion),neutralization IC50,[1],0.05 nM
same,neutralization IC90,[1],0.56 nM
same,neutralization IC50,[2],0.17 nM
same,neutralization IC90,[2],3.4 nM
same,neutralization IC50,[3],2.1 nM
same,neutralization IC90,[3],> 28 nM
same,neutralization IC50,[4],0.56 nM
same,neutralization IC90,[4],3.2 nM
same,neutralization IC50,[5],0.17 nM
same,neutralization IC90,[5],1.6 nM
same,neutralization IC50,[6],0.24 nM
same,neutralization IC90,[6],5.5 nM
same,neutralization IC50,[7],0.33 nM
same,neutralization IC90,[7],2.6 nM
same,neutralization IC50,[8],0.39 nM
same,neutralization IC90,[8],10 nM
same,neutralization IC50,[9],0.18 nM
same,neutralization IC90,[9],1.8 nM
same,neutralization IC50,[10],0.33 nM
same,neutralization IC90,[10],15 nM
same,neutralization IC50,[11],0.52 nM
same,neutralization IC90,[11],18 nM
same,neutralization IC50,[12],0.11 nM
same,neutralization IC90,[12],2.4 nM
same,neutralization IC50,[13],0.27 nM
same,neutralization IC90,[13],9.4 nM
same,neutralization IC50,[14],0.28 nM
same,neutralization IC90,[14],3.3 nM
same,neutralization IC50,[15],0.11 nM
same,neutralization IC90,[15],0.78 nM
same,neutralization IC50,[16],0.17 nM
same,neutralization IC90,[16],2.7 nM
same,neutralization IC50,[17],0.17 nM
same,neutralization IC90,[17],7.7 nM
same,neutralization IC50,[18],0.72 nM
same,neutralization IC90,[18],5.8 nM
same,neutralization IC50,[19],0.22 nM
same,neutralization IC90,[19],3.2 nM
same,neutralization IC50,[20],0.11 nM
same,neutralization IC90,[20],18 nM
same,neutralization IC50,[21],0.11 nM
same,neutralization IC90,[21],4 nM
same,neutralization IC50,[22],0.01 nM
same,neutralization IC90,[22],0.11 nM
same,neutralization IC50,[23],0.89 nM
same,neutralization IC90,[23],21 nM
same,neutralization IC50,[24],0.33 nM
same,neutralization IC90,[24],2.3 nM
same,neutralization IC50,[25],0.39 nM
same,neutralization IC90,[25],2.8 nM
same,neutralization IC50,[26],0.11 nM
same,neutralization IC90,[26],0.83 nM
same,neutralization IC50,[27],0.11 nM
same,neutralization IC90,[27],2.8 nM
same,neutralization IC50,[28],0.11 nM
same,neutralization IC90,[28],2.4 nM
same,neutralization IC50,[29],0.08 nM
same,neutralization IC90,[29],1.2 nM
same,neutralization IC50,[30],0.11 nM
same,neutralization IC90,[30],0.61 nM
same,neutralization IC50,[31],0.45 nM
same,neutralization IC90,[31],10 nM
same,neutralization IC50,[32],0.67 nM
same,neutralization IC90,[32],8.7 nM
same,neutralization IC50,[33],0.67 nM
same,neutralization IC90,[33],12 nM
same,neutralization IC50,[34],0.07 nM
same,neutralization IC90,[34],0.44 nM
same,neutralization IC50,[35],0.05 nM
same,neutralization IC90,[35],5.3 nM
same,neutralization IC50,[36],1.2 nM
same,neutralization IC90,[36],19 nM
same,neutralization IC50,[37],0.29 nM
same,neutralization IC90,[37],2.6 nM
same,neutralization IC50,[38],0.11 nM
same,neutralization IC90,[38],1.2 nM
same,neutralization IC50,[39],0.17 nM
same,neutralization IC90,[39],2.4 nM
same,neutralization IC50,[40],0.33 nM
same,neutralization IC90,[40],6.6 nM
same,neutralization IC50,[41],0.49 nM
same,neutralization IC90,[41],4.9 nM
